In the supplement of paper PMC9732359:
± gives the uncertainty stated by the source.

Test: protein stability index of a GFP-peptide fusion (yeast GPS) (PSI 1-4); higher = more stable; sorted into four equal gates, so the index is relative within each strain
In short: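 Tiled 17-residue yeast protein peptides were fused downstream of GFP in a plasmid that also expresses Cherry, and the pooled library was carried in yeast. Mid-log cultures in leucine-free medium were sorted into four equal gates by GFP/Cherry fluorescence ratio, and plasmids from each gate were PCR-amplified and Illumina-sequenced, with reads assigned to strains by barcodes. The protein stability index for each peptide was each gate's read frequency times its gate number, summed.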

Sequence | protein stability index (doa10∆) | protein stability index (pdr5∆) | protein stability index (san1∆) | protein stability index (ubr1∆)
VFTMKELAQYMKTNVHT [RGR1] | 2.66 ± 0.1 | 2.84 ± 0.13 | 2.6 ± 0.082 | 2.69 ± 0.057
LGKRINSAVNNAISNTQ [SRP54] | 2.46 ± 0.099 | 3.19 ± 0.12 | 2.91 ± 0.096 | 3.12 ± 0.097
SMKANTSTNPNGLGTSH [ARP7] | 3.22 ± 0.093 | 3.41 ± 0.098 | 2.95 ± 0.078 | 3.27 ± 0.075
VIDIGASGCNVTPIIDG [ARP7] | 2.67 ± 0.088 | 3.03 ± 0.084 | 2.93 ± 0.071 | 3.02 ± 0.05
ELEEQESESERKYDLFQ [SMC2] | 3.32 ± 0.16 | 3.28 ± 0.11 | 3.31 ± 0.068 | 3.29 ± 0.094
DPFSDVDDDQDYVVAPG [GRR1] | 2.56 ± 0.12 | 2.17 ± 0.2 | 1.74 ± 0.19 | 3.55 ± 0.24
MQTALRRLPEDESYARA [QCR7] | 2.78 ± 0.058 | 2.5 ± 0.066 | 2.34 ± 0.05 | 2.39 ± 0.044
IQSKRLRNKIAGYTTHL [RPS17A] | 3.16 ± 0.1 | 3.41 ± 0.088 | 3.23 ± 0.065 | 3.36 ± 0.072
IRNVLVTVDQYVNVAIS [SSN2] | 1.21 ± 0.044 | 1.25 ± 0.058 | 1.29 ± 0.089 | 1.39 ± 0.058
LLTLTNAANVPVENIWA [RPP1A] | 2.12 ± 0.081 | 2.56 ± 0.13 | 2.48 ± 0.11 | 2.55 ± 0.094
SPLQKEEALNFDISMAD [SSN2] | 3.23 ± 0.058 | 3.07 ± 0.057 | 3.18 ± 0.07 | 3.25 ± 0.058
KDSVTECSKDMKEDGLS [SIR4] | 3.21 ± 0.12 | 3.45 ± 0.066 | 3.23 ± 0.07 | 3.32 ± 0.049
RLELLQLSPVKNSRVEL [SMC4] |  | 3.54 ± 0.25 | 3.22 ± 0.13 | 
LESTIAETQGSKVVIDS [IRR1] | 2.9 ± 0.1 | 3.03 ± 0.14 | 3.06 ± 0.12 | 2.98 ± 0.12
ICGYTRKEGPTIYYVDS [PRE2] | 3.36 ± 0.095 | 3.24 ± 0.081 | 3.42 ± 0.042 | 2.84 ± 0.069
FYLYMLVQKFGGADQVT [SWI1] |  | 1.35 ± 0.19 |  | 1.75 ± 0.14
VAIGNTYGFLTPNLWAE [RPS2] | 2.26 ± 0.073 | 2.49 ± 0.054 | 2.36 ± 0.089 | 2.43 ± 0.04
EREIKRRKFDPSSSENV [UBP6] | 3.51 ± 0.078 | 3.37 ± 0.071 | 3.14 ± 0.065 | 3.33 ± 0.13
DPDLGLDLMFDEVYVQN [YJL039C/NUP192] | 3.06 ± 0.13 | 3.04 ± 0.11 | 2.93 ± 0.11 | 2.85 ± 0.038
FKNTRETAQAINGWELT [RPL17A] | 1.35 ± 0.031 | 1.58 ± 0.04 | 2.06 ± 0.062 | 1.4 ± 0.033
DSNMDSISSVVSEDLLD [RPN4] | 2.3 ± 0.073 | 2.31 ± 0.056 | 2.76 ± 0.05 | 2.45 ± 0.032
SLVNSYIIDSPQPSSIN [COB] | 1.51 ± 0.085 | 1.59 ± 0.08 | 1.64 ± 0.15 | 1.32 ± 0.081
TKEKVNGASVPINLHPS [RPL26A] | 2.54 ± 0.067 | 2.73 ± 0.078 | 2.92 ± 0.07 | 2.93 ± 0.064
EIEPILMEIHNILKVDS [RGR1] | 1.74 ± 0.098 | 1.84 ± 0.1 | 1.98 ± 0.15 | 1.76 ± 0.065
LLTNFHGMDFTTDKLRS [RPS1A] | 2.52 ± 0.1 | 3.02 ± 0.084 | 2.84 ± 0.097 | 2.81 ± 0.077
FRGARKNKGLVVSPYDY [DIB1] | 2.58 ± 0.077 | 2.54 ± 0.088 | 2.53 ± 0.09 | 2.82 ± 0.081
NLEESSKLDIYTQQQAL [RET1] | 2.9 ± 0.087 | 2.77 ± 0.078 | 2.47 ± 0.07 | 2.94 ± 0.079

Sequence | protein stability index (doa10∆) | protein stability index (pdr5∆) | protein stability index (san1∆) | protein stability index (ubr1∆)
SLQRSKSSFVKESAVIS [SMC1] | 2.04 ± 0.11 | 2.27 ± 0.047 | 2.17 ± 0.067 | 2.29 ± 0.039
TTEMLDKLMVTSIRSTP [MED6] | 2.27 ± 0.14 | 2.45 ± 0.12 | 2.81 ± 0.27 | 2.53 ± 0.089
KRINFEKIKDIHNTKLP [POP1] | 2.42 ± 0.17 | 3.06 ± 0.13 | 2.87 ± 0.28 | 2.54 ± 0.076
DENPDLLGYTGIPTDKG [PRE8] | 1.99 ± 0.05 | 2.48 ± 0.063 | 2.71 ± 0.05 | 2.28 ± 0.044
PAAANLDALVDCENFFN [YJL039C/NUP192] | 2.71 ± 0.085 | 2.77 ± 0.08 | 2.64 ± 0.057 | 2.7 ± 0.093
KTKILEVAIRDVNLDVR [IRR1] | 2.58 ± 0.055 | 2.12 ± 0.065 | 2.38 ± 0.057 | 2.48 ± 0.052
SSFEKFNDSQAIVCYIL [SRP72] | 2.43 ± 0.046 | 2.53 ± 0.047 | 2.42 ± 0.042 | 2.63 ± 0.031
PDEAIEKVFNAYPAARE [FAS1] | 2.94 ± 0.099 | 3.22 ± 0.1 | 3.11 ± 0.059 | 3.1 ± 0.093
RLRTLCRDSDDHKRFIV [DIS3] | 2.68 ± 0.2 | 2.75 ± 0.13 | 2.2 ± 0.27 | 2.95 ± 0.048
FPRTRFEAQIDSVEFIF [RPN10] | 2.61 ± 0.11 | 2.88 ± 0.066 | 2.62 ± 0.11 | 2.81 ± 0.068
IQEIKESVELPLTHPEL [RPT2] | 2.7 ± 0.073 | 2.97 ± 0.069 | 2.74 ± 0.068 | 2.75 ± 0.035
VPPTIAQFQYTLDRNTA [RPL8A] | 1.83 ± 0.06 | 2.06 ± 0.048 | 1.64 ± 0.095 | 1.68 ± 0.044
FEENDHPNRVLEHLHST [COR1] | 2.96 ± 0.049 | 2.95 ± 0.052 | 3 ± 0.055 | 3.07 ± 0.049
EARLRNLTYSSGLFVDV [RPB2] | 2.34 ± 0.057 | 2.25 ± 0.047 | 1.46 ± 0.075 | 1.79 ± 0.028
KVGQFDQVLNLCLTEFE [FAS1] | 2.75 ± 0.076 | 2.97 ± 0.062 | 2.73 ± 0.06 | 3.11 ± 0.038
TVIEGVKEESQPDENTK [SWI3] | 3.13 ± 0.17 | 3.28 ± 0.15 | 2.74 ± 0.12 | 3 ± 0.089
ERSICALGEFADWDPES [YML031W/NDC1] | 3.5 ± 0.14 | 3.53 ± 0.092 | 3.28 ± 0.088 | 3.27 ± 0.064
MKRMVAQWERSKLSQEF [SNF12] | 3.23 ± 0.22 | 3.05 ± 0.15 | 3.11 ± 0.23 | 3.21 ± 0.087
KTLIGLQGIVIWDSQKF [POP4] | 1.7 ± 0.061 | 1.91 ± 0.051 | 2.17 ± 0.071 | 2.38 ± 0.044
NLSIDEVAVPDRVAKVL [RPO31] | 3.09 ± 0.076 | 3.05 ± 0.073 | 3.11 ± 0.06 | 3.22 ± 0.045
LQCPMLYVESTGKFVLQ [CSN12] | 2.34 ± 0.12 | 2.98 ± 0.12 | 2.43 ± 0.15 | 2.68 ± 0.1
ENYSAMIFETIVDGKLK [FAS1] |  | 3.24 ± 0.22 | 2.98 ± 0.13 | 3.09 ± 0.16
NNSSSGMNNASAGLFGS [YGL172W/NUP49] | 3.18 ± 0.084 | 3.08 ± 0.051 | 3.29 ± 0.036 | 3.35 ± 0.068
LQNSERDVELSSDELKV [SMC4] | 2.84 ± 0.11 | 3.12 ± 0.088 | 2.73 ± 0.066 | 3.04 ± 0.12
VKCEELSNTLACYRTIM [RRP40] | 2.24 ± 0.069 | 2.49 ± 0.093 | 2.01 ± 0.087 | 2.57 ± 0.075
LDERGHEKIEDEDEDND [RPN4] | 3.37 ± 0.25 | 3.44 ± 0.15 | 3.48 ± 0.13 | 3.32 ± 0.17
HKSDVMSVDIDKKASMI [ASC1] | 3 ± 0.1 | 2.79 ± 0.083 | 2.48 ± 0.082 | 2.87 ± 0.11
